We go through one molecule from patent publication US20240254220A1 (CENTRICSBIO, published 2024).

Holding throughout (assay): binding ELISA on coated antigen (8 µg/mL), HRP anti-Fc detection, 450 nm (Experimental Example 2.5)
The target of test [1] is T1, CD300c antigen (11832-H08H, Sino Biological) (human, UniProt Q08708 21-183).
T1 construct: Bought antigen; also called CD300c protein; CD300 antigen-like family member C
T1 sequence (looked up): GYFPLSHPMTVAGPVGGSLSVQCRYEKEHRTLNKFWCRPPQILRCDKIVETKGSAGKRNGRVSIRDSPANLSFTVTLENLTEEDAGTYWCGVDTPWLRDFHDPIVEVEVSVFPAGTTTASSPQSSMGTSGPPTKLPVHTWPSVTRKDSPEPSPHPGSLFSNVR
The procedure:
(§1) In order to identify that the anti-CD300c monoclonal antibody CL7 specifically binds only to CD300c without binding to other B7 family proteins, binding ELISA was performed. More specifically, each of CD300c antigen, CD300a antigen, or seven B7 family protein antigens (PD-L1 [B7-H1] (Sino Biological), ICOS Ligand[B7-H2] (Sino Biological), CD276[B7-H3] (Sino Biological), B7-H4 (Sino Biological), CD80[B7-1] (Sino Biological), CD86[B7-2] (Sino Biological), CD273[PD-L2] (Sino Biological)) in a coating buffer (0.1 M sodium carbonate, pH 9.0) was coated on an ELISA plate at a concentration of 8 μg/mL per well, and then bound to the plate by incubation at 2° C. to 8° C. overnight. The unbound antigen was removed by washing with PBST three times, and then […] of blocking buffer (5% skim milk in PBST) was added to each well. Subsequently, blocking was performed at room temperature for 1 hour, followed by washing again with PBST. Thereafter, CL7 was diluted in quadruplicate with PBS, incubated with the antigen at room temperature for 1 hour for antigen binding 1 hour later, and washed three times with PBST. Then, a secondary antibody (HRP-conjugated anti-Fc IgG) diluted to 4 μg/mL in blocking buffer was added thereto, followed by incubation at room temperature for 1 hour. Subsequently, the unbound antibody for detection was removed using PBST, and then a TMB solution was added thereto, followed by incubation for 10 minutes for development. Then, 2 N sulfuric acid solution was added to terminate the development reaction, and the absorbance was measured at 450 nm to identify the antibody specifically binding to the CD300c antigen.

Test [2] addresses T2, CD300a antigen (12449-H08H, Sino Biological) (UniProt Q9UGN4 18-178).
T2 sequence (looked up): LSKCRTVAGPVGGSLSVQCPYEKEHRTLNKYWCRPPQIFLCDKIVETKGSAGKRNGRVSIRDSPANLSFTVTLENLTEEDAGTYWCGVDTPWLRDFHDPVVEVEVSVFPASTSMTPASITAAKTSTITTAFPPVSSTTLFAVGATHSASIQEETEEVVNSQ
As for the experimental part:
as §1

For test [3], the target named is PD-L1 [B7-H1] (Sino Biological) (UniProt Q9NZQ7 19-239). The procedure:
as §1

Test [4] deals with T3, CD276[B7-H3] (Sino Biological) (UniProt Q5ZPR3 29-461, limits assumed).
T3 sequence (looked up): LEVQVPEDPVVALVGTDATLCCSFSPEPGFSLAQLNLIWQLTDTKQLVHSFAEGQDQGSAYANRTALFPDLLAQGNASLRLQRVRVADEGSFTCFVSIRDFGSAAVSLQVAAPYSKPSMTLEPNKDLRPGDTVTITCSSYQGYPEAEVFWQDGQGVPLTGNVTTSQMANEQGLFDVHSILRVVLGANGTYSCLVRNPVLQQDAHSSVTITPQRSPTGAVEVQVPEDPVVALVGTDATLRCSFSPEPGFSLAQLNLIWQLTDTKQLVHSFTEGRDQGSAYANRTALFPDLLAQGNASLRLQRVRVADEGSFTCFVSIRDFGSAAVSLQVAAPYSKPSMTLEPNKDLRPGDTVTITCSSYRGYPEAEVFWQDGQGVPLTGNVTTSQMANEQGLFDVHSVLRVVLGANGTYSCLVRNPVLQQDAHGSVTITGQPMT
The procedure: as §1

A further test concerns the target T4, B7-H4 (Sino Biological) (UniProt Q7Z7D3 25-258, limits assumed).
T4 sequence (looked up): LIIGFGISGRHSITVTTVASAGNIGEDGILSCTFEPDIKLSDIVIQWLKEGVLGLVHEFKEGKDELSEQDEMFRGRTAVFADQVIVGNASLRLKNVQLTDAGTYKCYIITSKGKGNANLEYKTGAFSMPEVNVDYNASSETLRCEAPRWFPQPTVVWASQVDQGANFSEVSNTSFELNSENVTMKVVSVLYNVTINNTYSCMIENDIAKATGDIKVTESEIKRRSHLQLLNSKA
As for the experimental part:
as §1

In test [5] the target is T5, CD86[B7-2] (Sino Biological) (UniProt P42081 24-245, limits assumed).
T5 sequence (looked up): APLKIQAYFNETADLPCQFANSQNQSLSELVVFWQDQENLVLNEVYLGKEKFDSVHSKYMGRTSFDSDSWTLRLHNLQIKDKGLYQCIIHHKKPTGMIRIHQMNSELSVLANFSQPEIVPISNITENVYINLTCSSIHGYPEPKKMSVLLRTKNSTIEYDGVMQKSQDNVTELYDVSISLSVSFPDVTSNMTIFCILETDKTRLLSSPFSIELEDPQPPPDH
As for the experimental part: as §1

In test [6] the target is T6, CD273[PD-L2] (Sino Biological) (UniProt Q9BQ51 20-219, limits assumed).
T6 sequence (looked up): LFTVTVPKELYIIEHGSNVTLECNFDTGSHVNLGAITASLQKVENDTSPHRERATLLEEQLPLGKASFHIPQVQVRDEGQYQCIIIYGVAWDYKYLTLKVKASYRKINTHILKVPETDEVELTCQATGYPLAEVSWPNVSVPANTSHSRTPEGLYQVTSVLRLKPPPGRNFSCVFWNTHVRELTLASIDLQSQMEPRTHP
As for the experimental part:
as §1

Chain of PD-L1 [B7-H1] (Sino Biological) (Q9NZQ7 19-239 limits assumed): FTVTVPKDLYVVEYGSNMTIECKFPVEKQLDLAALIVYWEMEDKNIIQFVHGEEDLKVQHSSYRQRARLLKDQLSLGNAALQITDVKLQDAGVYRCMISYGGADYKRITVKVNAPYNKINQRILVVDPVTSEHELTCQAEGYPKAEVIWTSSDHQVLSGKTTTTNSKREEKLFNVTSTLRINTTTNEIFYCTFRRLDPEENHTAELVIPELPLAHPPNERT

B1: CL7 (antibody, V domains shown)
VH: EVQLLESGGGLVQPGGSLRLSCAASGFTFSRYAMSWVRQAPGKGLEWVSAISGSGGSTYYADSVKGRFTISRDNSKNTLYLQMNSLRAEDTAVYYCARSSQGIFDIWGQGTLVTVSS
VL: QSVLTQPPSASGTPGQRVTISCSGNNIGTRRVHWYQQLPDTAPKLLIYSKNNRPSGVPDRFSGSKSGTSASLAISGLRSEDEADYYCAAWDDSLSGPVFGGGTKLTVL
notes: detected with anti-human IgG (H+L) and anti-Fc IgG; also called anti-CD300c monoclonal antibody CL7; anti-CD300c monoclonal antibody (CL7)
Regarding B1, in test [1], the “EC50 (read off the curve)” value was about 0.2 µg/mL. The binding result (in test [2]; in test [3]; in test [4]; in the test with B7-H4 (Sino Biological); in test [5]; in test [6]) was “no binding (tested: log10 about 0.4 ug/ml (about 2.5 ug/ml))” each time.
